The Immune Epitope Database (IEDB)
pIC50, pKd: −log10 of the molar value. Each block holds one sequence with its values, some of them ahead of it.

Columns and labels:
HLA-A*02:01 [1] = test: IEDB peptide-MHC binding, cellular MHC/competitive/fluorescence; filed as Kd, often an IC50 or EC50 that approximates it; ≥ and ≤ were set here for values at or beyond the usual limits of such assays; conditions: source organism: Homo sapiens
HLA-A*02:01 [2] = test: IEDB peptide-MHC binding, purified MHC/competitive/radioactivity; ≥ and ≤ were set here for values at or beyond the usual limits of such assays; conditions: source organism: Homo sapiens
HLA-B*27:05 = test: IEDB peptide-MHC binding, purified MHC/direct/fluorescence; filed as Kd, often an IC50 or EC50 that approximates it; ≥ and ≤ were set here for values at or beyond the usual limits of such assays; conditions: source organism: Giardia lamblia ATCC 50803
HLA-A*26:01 [3] = test: as above; conditions: source organism: Giardia lamblia ATCC 50803
HLA-A*24:03 = test: as above; conditions: source organism: Giardia lamblia ATCC 50803
HLA-A*31:01 = test: as above; conditions: source organism: Giardia lamblia ATCC 50803
HLA-A*69:01 [4] = test: as above; conditions: source organism: Giardia lamblia ATCC 50803
HLA-A*30:01 = test: as above; conditions: source organism: Giardia lamblia ATCC 50803
HLA-B*40:01 = test: as above; conditions: source organism: Giardia lamblia ATCC 50803
HLA-B*15:01 [5] = test: as above; conditions: source organism: Giardia lamblia ATCC 50803
HLA-B*58:01 = test: as above; conditions: source organism: Giardia lamblia ATCC 50803
HLA-B*07:02 = test: as above; conditions: source organism: Giardia lamblia ATCC 50803
HLA-A*03:01 [6] = test: as above; conditions: source organism: Giardia lamblia ATCC 50803
HLA-A*01:01 = test: as above; conditions: source organism: Giardia lamblia ATCC 50803
HLA-B*44:02 = test: as above; conditions: source organism: Giardia lamblia ATCC 50803
HLA-A*02:01 [7] = test: as above; conditions: source organism: Giardia lamblia ATCC 50803
HLA-A*11:01 = test: as above; conditions: source organism: Giardia lamblia ATCC 50803
HLA-B*08:01 = test: as above; conditions: source organism: Giardia lamblia ATCC 50803
HLA-A*26:01 [8] = test: IEDB peptide-MHC binding, purified MHC/competitive/fluorescence; filed as Kd, often an IC50 or EC50 that approximates it; ≥ and ≤ were set here for values at or beyond the usual limits of such assays
HLA-B*15:17 = test: as above; conditions: source organism: Yersinia pestis Nepal516
HLA-B*46:01 = test: as above
HLA-B*39:01 = test: as above
HLA-A*69:01 [9] = test: as above
HLA-A*29:02 = test: as above
HLA-A*02:03 = test: as above; conditions: source organism: Yersinia pestis Nepal516
HLA-B*27:03 = test: as above
HLA-B*15:01 [10] = test: as above; conditions: source organism: Yersinia pestis Nepal516
HLA-A*03:01 [11] = test: as above
HLA-A*25:01 = test: as above; conditions: source organism: Yersinia pestis Nepal516
HLA-B*51:01 = test: as above; conditions: source organism: Yersinia pestis Nepal516
HLA-B*18:01 = test: as above
HLA-A*68:02 = test: as above
HLA-A*02:01 [12] = test: as above; conditions: source organism: Yersinia pestis Nepal516
HLA-A*02:16 = test: as above; conditions: source organism: Yersinia pestis Nepal516
HLA-A*02:12 = test: as above
HLA-A*02:11 = test: as above
HLA-A*02:19 = test: as above
HLA-B*57:01 = test: as above
HLA-A*80:01 = test: as above; conditions: source organism: Yersinia pestis Nepal516
HLA-A*03:19 = test: as above; conditions: source organism: Cryptosporidium parvum Iowa II
HLA-B*83:01 = test: as above
HLA-B*45:06 = test: as above
HLA-B*27:20 = test: as above; conditions: source organism: Cryptosporidium parvum Iowa II
HLA-B*15:42 = test: as above
HLA-A*32:15 = test: as above; conditions: source organism: Entamoeba histolytica HM-1:IMSS
HLA-C*14:02 = test: as above; conditions: source organism: Entamoeba histolytica HM-1:IMSS
HLA-A*68:23 = test: as above; conditions: source organism: Entamoeba histolytica HM-1:IMSS
HLA-C*15:02 = test: IEDB peptide-MHC binding, purified MHC/direct/fluorescence; filed as Kd, often an IC50 or EC50 that approximates it; ≥ and ≤ were set here for values at or beyond the usual limits of such assays; conditions: source organism: Entamoeba histolytica HM-1:IMSS
[13] = source organism: Yersinia pestis Nepal516
[14] = source organism: Cryptosporidium parvum Iowa II
[15] = source organism: Entamoeba histolytica HM-1:IMSS

pKd (HLA-A*02:01 [1]): ≤ 3.81
Sequence: KLVVVGAGGV

pIC50 (HLA-A*02:01 [2]): 7.94
Sequence: KMDSFLDMQL

Sequence: KTPWDRFCK
pKd (HLA-B*27:05): ≤ 4.70
pKd (HLA-A*26:01 [3]): ≤ 4.70
pKd (HLA-A*24:03): 5.16
pKd (HLA-A*31:01): 7.02
pKd (HLA-A*69:01 [4]): ≤ 4.70
pKd (HLA-A*30:01): 7.66
pKd (HLA-B*40:01): ≤ 4.70
pKd (HLA-B*15:01 [5]): ≤ 4.70
pKd (HLA-B*58:01): ≤ 4.70
pKd (HLA-B*07:02): ≤ 4.70
pKd (HLA-A*03:01 [6]): 5.44
pKd (HLA-A*01:01): ≤ 4.70
pKd (HLA-B*44:02): ≤ 4.70
pKd (HLA-A*02:01 [7]): ≤ 4.70
pKd (HLA-A*11:01): 7.19
pKd (HLA-B*08:01): ≤ 4.70

Sequence: LELIGNAES
pKd (HLA-A*26:01 [8]; [13]): ≤ 4.70
pKd (HLA-B*15:17): ≤ 4.70
pKd (HLA-B*46:01; [13]): ≤ 4.70
pKd (HLA-B*39:01; [13]): ≤ 4.70
pKd (HLA-A*69:01 [9]; [13]): ≤ 4.70
pKd (HLA-A*29:02; [13]): ≤ 4.70
pKd (HLA-A*02:03): ≤ 4.70
pKd (HLA-B*27:03; [13]): ≤ 4.70
pKd (HLA-B*15:01 [10]): ≤ 4.70
pKd (HLA-A*03:01 [11]; [13]): ≤ 4.70
pKd (HLA-A*25:01): ≤ 4.70
pKd (HLA-B*51:01): ≤ 4.70
pKd (HLA-B*18:01; [13]): 6.04
pKd (HLA-A*68:02; [13]): ≤ 4.70
pKd (HLA-A*02:01 [12]): ≤ 4.70
pKd (HLA-A*02:16): ≤ 4.70
pKd (HLA-A*02:12; [13]): ≤ 4.70
pKd (HLA-A*02:11; [13]): ≤ 4.70
pKd (HLA-A*02:19; [13]): ≤ 4.70
pKd (HLA-B*57:01; [13]): ≤ 4.70
pKd (HLA-A*80:01): ≤ 4.70

Sequence: RIYKRSLKL
pKd (HLA-A*26:01 [8]; [14]): ≤ 4.70
pKd (HLA-B*46:01; [14]): ≤ 4.70
pKd (HLA-B*39:01; [14]): ≤ 4.70
pKd (HLA-A*69:01 [9]; [14]): ≤ 4.70
pKd (HLA-A*29:02; [14]): ≤ 4.70
pKd (HLA-B*27:03; [14]): ≤ 4.70
pKd (HLA-A*03:01 [11]; [14]): 7.72
pKd (HLA-A*03:19): 7.85
pKd (HLA-B*83:01; [14]): ≤ 5.30
pKd (HLA-B*45:06; [14]): ≤ 5.30
pKd (HLA-B*18:01; [14]): ≤ 4.70
pKd (HLA-A*68:02; [14]): ≤ 4.70
pKd (HLA-B*27:20): 7.53
pKd (HLA-A*02:12; [14]): ≤ 4.70
pKd (HLA-A*02:11; [14]): ≤ 4.70
pKd (HLA-A*02:19; [14]): ≤ 4.70
pKd (HLA-B*57:01; [14]): ≤ 4.70
pKd (HLA-B*15:42; [14]): 5.66

Sequence: YIISTHYQF
pKd (HLA-A*32:15): 6.67
pKd (HLA-A*29:02; [15]): 9.52
pKd (HLA-C*14:02): 6.80
pKd (HLA-B*83:01; [15]): 5.24
pKd (HLA-B*45:06; [15]): ≤ 5.30
pKd (HLA-A*68:23): 6.69
pKd (HLA-B*15:42; [15]): ≤ 5.30
pKd (HLA-C*15:02): 5.71
